# Assay results: paper PMC4933465 (The Journal of Biological Chemistry, 2016)
# Numbering of substitutions follows the chain as printed. Names may count otherwise.
# B1: CCL27 (ligand, UniProt Q9Y4X3 25-112, looked up)
# chain: FLLPPSTACCTQLYRKPLSDKLLRKVIQVELQEADGDCHLQAFVLHLAQRSICIHPQNPSLSQWFEHQERKLHGTLPKLNFGMLRKMG
# notes: chemokine CCL27; source: E. coli, purified
# B2: CCL27 K25A (ligand, UniProt Q9Y4X3 25-112, looked up)
# chain: B1 chain with K25A
# notes: chemokine CCL27 with K25A; also called CCL27 K25A mutant; source: E. coli, purified
# B3: CXCL11 (ligand, UniProt O14625 22-94, looked up)
# chain: FPMFKRGRCLCIGPGVKAVKVADIEKASIMYPSNNCDKIEVIITLKENKGQRCLNPKSKQARLIIKKVERKNF
# notes: chemokine CXCL11; CXCL11 is not in the methods' list of chemokines made in E. coli
# B4: Link_TSG6_T (K55A/K69A/K76A) (domain or fragment, human)
# chain: GVYHREARSGKYKLTYAEAAAVCEFEGGHLATYAQLEAARAIGFHVCAAGWMAKGRVGYPIVKPGPNCGFGKTGIIDYGIRLNRSERWDAYCYNPHAK
# notes: Link module of human TSG-6 with three lysines changed to alanine; residues numbered as in the pre-protein
# B5: CCL7 (ligand)
# chain: not shown
# notes: chemokine CCL7; source: E. coli, purified
# B6: CCL19 (ligand, UniProt Q99731 22-98, looked up)
# chain: GTNDAEDCCLSVTQKPIPGYIVRNFHYLLIKDGCRVPAVVFTTLRGRQLCAPPDQPWVERIIQRLQRTSAKMKRRSS
# notes: chemokine CCL19; source: E. coli, purified
# B7: CCL5 (ligand, UniProt P13501 24-91, looked up)
# chain: SPYSSDTTPCCFAYIARPLPRAHIKEYFYTSGKCSNPAVVFVTRKNRQVCANPEKKWVREYINSLEMS
# notes: chemokine CCL5; source: E. coli, purified
# B8: CCL21 (ligand, UniProt O00585 24-134, looked up)
# chain: SDGGAQDCCLKYSQRKIPAKVVRSYRKQEPSLGCSIPAILFLPRKRSQAELCADPKELWVQQLMQHLDKTPSPQKPAQGCRKDRGASKTGKKGKGSKGCKRTERSQTPKGP
# notes: chemokine CCL21; source: E. coli, purified
# B9: Biotinylated CCL21 (ligand, UniProt O00585 24-134, looked up)
# chain: B8 chain
# modifications: biotin
# notes: chemokine CCL21, biotinylated; also called biotinylated chemokine CCL21; source: E. coli, purified
# How the values were obtained:
# Settings in all cases: both partners purified
# [1] = molecular target: T1, Link_TSG6 (recombinant Link module from human TSG-6) (human, UniProt P98066 36-133); assay: SPR; Link_TSG6 amine-coupled to a C1 chip (800–1000 RU), chemokine as analyte; BIAcore 3000; 10 mM HEPES, 150 mM NaCl, 0.05% Tween 20, pH 7.4; 40 μl/min; 1:1 Langmuir model; apparent affinities
# T1 construct: Link module of human TSG-6 (TNF-stimulated gene/protein 6); residues numbered as in the pre-protein; also called TSG-6 Link module
# CCL19 = molecular target: B6; assay: ELISA; solid phase competition: chemokine (250 nM) coated on MaxiSorp plates, biotinylated heparin (25 ng/well) with Link_TSG6_T (0–1000 nM); 10 mM NaOAc, 150 mM NaCl, 2% Tween 20, pH 6.0, room temperature, 4 h; bound heparin detected
# CCL2 = molecular target: T2, CCL2 (UniProt P13500 24-99); assay: as above
# T2 construct: chemokine CCL2; source: E. coli, purified
# T2 sequence (P13500 24-99): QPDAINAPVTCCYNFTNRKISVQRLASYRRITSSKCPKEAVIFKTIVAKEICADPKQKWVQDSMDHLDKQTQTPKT
# CCL7 = molecular target: B5; assay: as above
# CCL7, sequence (P80098 24-99): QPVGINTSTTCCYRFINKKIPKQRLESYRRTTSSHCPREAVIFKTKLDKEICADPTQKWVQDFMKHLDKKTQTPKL
# CXCL11 = molecular target: B3; assay: as above
# [2] = molecular target: T1, Link_TSG6 (recombinant Link module from …); assay: SPR; Link_TSG6 amine-coupled to a C1 chip (800–1000 RU), chemokine as analyte; BIAcore 3000; 10 mM HEPES, 150 mM NaCl, 0.05% Tween 20, pH 7.4; 40 μl/min; 1:1 Langmuir model; apparent affinities; remark: listed apart in the source
# [3] = molecular target: T1, Link_TSG6 (recombinant Link module from …); assay: plate binding assay on a collagen-coated surface, labeled streptavidin detection; wells coated with type I collagen (100 μg/ml); biotinylated chemokine (10, 50 or 200 nM) alone or pre-incubated 30 min at 37 °C with different molar ratios of Link_TSG6 in cPBS, then 1 h on the surface; streptavidin IRDye 800CW
Kd [1],koff [1],kon [1],Binder,other results
85.2 nM,0.0023 s⁻¹,27000 M⁻¹ s⁻¹,B1,–
753 nM,0.0061 s⁻¹,8100 M⁻¹ s⁻¹,B2,–
5.2 nM,0.0013 s⁻¹,250000 M⁻¹ s⁻¹,B3,–
–,–,–,B4,IC50 (CCL19): 55 nM; IC50 (CCL2): 84 nM; IC50 (CCL7): 159 nM; IC50 (CXCL11): 168 nM
18.4 nM,0.0016 s⁻¹,87000 M⁻¹ s⁻¹,B5,–
17.5 nM,0.0028 s⁻¹,160000 M⁻¹ s⁻¹,B6,–
–,–,–,B7,binding result [2]: binds
4.8 nM,0.0034 s⁻¹,710000 M⁻¹ s⁻¹,B8,–
–,–,–,B9,binding result [3]: binds
